Patent publication US20130108642A1 (LOS ANGELES BIOMEDICAL RESEARCH INSTITUTE AT HARBOR UCLA …, published 2013)

Tests used:
[1] = target: T1, endothelial cell surface GRP78 (human umbilical vein endothelial cells) (human, UniProt P11021 19-654); experiment: pull-down of biotin-labeled endothelial cell surface proteins by yeast cells, immunoblot with anti-GRP78 Ab
T1 construct: whole, on cells; In the adherence and endocytosis assays it is on intact endothelial cells; also called endothelial cell GRP78; Glucose Regulated Protein 78
T1 sequence (P11021 19-654): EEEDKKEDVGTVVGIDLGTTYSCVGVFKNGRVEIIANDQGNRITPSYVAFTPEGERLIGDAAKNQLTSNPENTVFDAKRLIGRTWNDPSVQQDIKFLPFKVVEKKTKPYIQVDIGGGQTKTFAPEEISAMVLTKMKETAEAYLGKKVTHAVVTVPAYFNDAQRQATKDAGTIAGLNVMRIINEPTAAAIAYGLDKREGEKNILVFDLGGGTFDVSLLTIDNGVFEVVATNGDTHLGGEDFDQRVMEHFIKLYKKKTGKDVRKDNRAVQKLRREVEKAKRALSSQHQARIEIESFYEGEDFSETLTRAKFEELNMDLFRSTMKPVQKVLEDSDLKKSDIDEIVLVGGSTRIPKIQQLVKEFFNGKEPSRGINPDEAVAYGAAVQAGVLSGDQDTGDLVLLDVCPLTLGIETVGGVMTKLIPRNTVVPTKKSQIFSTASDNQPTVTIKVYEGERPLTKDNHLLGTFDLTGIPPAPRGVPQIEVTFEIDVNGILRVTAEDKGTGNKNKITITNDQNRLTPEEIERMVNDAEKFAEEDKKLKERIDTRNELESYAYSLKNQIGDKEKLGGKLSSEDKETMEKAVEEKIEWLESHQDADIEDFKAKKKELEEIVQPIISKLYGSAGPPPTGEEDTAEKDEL

[2] = target: T2, recombinant human Grp78 (human, UniProt P11021 19-654); experiment: FAR Western blot with recombinant human Grp78 and anti-Grp78 Ab; bands identified by MALDI-TOF-MS/MS
T2 construct: Soluble probe in the FAR Western blot, detected with anti-Grp78 Ab; also called rGrp78; Grp78p
T2 sequence (P11021 19-654 limits assumed): as the sequence (P11021 19-654) above

Binder	binding result [1]	binding result [2]
CotH1 (RO3G-05018) from R. oryzae, on the cell surface of S. cerevisiae (other, also called S. cerevisiae expressing CotH1) AKVSFKVIAPDAKNRVHVNINGVLVELKASDPDVPYYTGFAELKHGQSYNYVVDGNAEPFKRLLNGSSTKNEFFNRPVTYATNIPELPSILTEGSWTRGDTSNPIWDSNYVPSIFVTGNPREMNELIENVKKNTYKTKITFIGPETINTFEGCTLGLHKPGRKHNDAKQSWIWALPEGQFMANRNWFKIRHMEEDPTQLREKLYADILRKMGTYANEANMVRFFINKEGMGIFNMLDDVIMYSYINAMFYHGDTPEQLGGLYDGASGASFNFPGDFDSFIPNVESPLDQDAIEPFSKAFTSIDFLEDEQVKTIGKYFDYDQFLRFMVMEFLTGDWDGYWQEQTNDGAYIDINDHNKIYYLGQDFDATFGVNLEQKREFVNVSYTEYPKLFPGGVLINRLLQNPGVKKTFENYLKITVQEIFNNATLGPYVTARHEFLAPDLQWDRSIKQRSPGNIFGWTFEQTYENLFEGVTAPGKNSGGADWGLLEWVAAKEKAVKSYLSSSEAADAATVTQVPEAPGTDGTPSESTAWPHANTRFRQAEASNTHKIGTSSPSNFIVKIKQGTVSS	no binding	
CotH3 (RO3G-11882), native protein in cell wall material from supernatants of R. oryzae germling protoplasts (other, Protein on the FAR Western blot, identified by MALDI-TOF-MS/MS of excised bands; also called R. oryzae ligand; R. oryzae surface protein) ASIKFNVIAPNATDVKVSVNGQQVTLTASDANVPYFTGSAEVGASKTYKYVAGGTEESFDRSLDGITNSTLNDFYNRPVTYANLPQLPWPIEKDPQWTRSGSKADIFDDNYIPSVFFHGDDSQVQNVVKNVPADRISGTLTFIGSNYVYSFQNVSFGIHGAGKKHNNAKQSWNWILSGSDTMGNRNFFKLRHMEEDPTQIRERLYSDILHAMGTYANDATMVRLFINNQGFGTFNMLDDITQFSYINAKFYNGKPPATLGPLYDGASGADFLYHPGNLDGYSSWVANTANPNGEAYEALDPLCKAWNETTYTDNTAIANFEKMFDLDRFMRFMVIEYLTADWDGYWMGQTNDGAYRDPTDNNKWYFLDQDFDGTFGVNLAAPEGNAFLDVSYKDFPSRYPGAVMINNLLQNADKKATFEKYLTETVRVLFNNVTLTNRVLALHNFLLPDLEWDRSIVQQSPGINFGWTFDQVTQNLWQGVTAPNNNGGGAAFGLVEYIAAKAQAVAKEFNISIVSQPVGPPSANGTTAAAPAPAAGNSTGKGGNQSISSSASSNKTSAQSTS		binds
CotH2 (RO3G-08029), native protein in cell wall material from supernatants of R. oryzae germling protoplasts (other, Protein on the FAR Western blot, identified by MALDI-TOF-MS/MS of excised bands; also called R. oryzae ligand; R. oryzae surface protein) ASVQFNLIAPSATDVKVSVNGQQVALTASDPNVPYFTGSAEVGGTEESFERSLAGITNSTFNDFYNRPVTYANLPQLPWPIENDPQWTRKGKKAEIFDDNYIPSVFFHGDDSQVQDLVKNVPKDKVTGTLTFIGSNYVHSFANVSFGIHGAGKKHNNAKQSWKWTLSGTDTMGNRNHFKLRHMEEDPTQIRERLYADILHAMGTYANETTMVRLFINGQGFGTFNMLDDITEFSYINAMFYGGNPPATLGPLFDGASGADFIYHPGNLDGYSSWKPNKDNANGEGYEAFDPLCKAWNETDYTDNTAIANFEKMFDTEHFLRFMVIEYLTAHWDGYWMGQTNDGAYRDPSDNNKWYFLDQDFDATFGVNLDVPENKDFISVSYKDFPSRYPAGVMANGLLQNADKKAKFEQYLTETVRVLFNNVTLTNRVLAIHNFLSPDLEWDRSIVQQSPGTNFGWTFEQTSQNLWQGVSAPNNNGGGAEWGLVEYIAAKSQAMAKEFNITIVSEPVGPPAANGTATSTNDGGNTHTAAGESKPASSSESSGSKIASQSVS		binds
